In patent US20150132307A1 (Hoffmann-La Roche, published 2015):

T1: Human IL17B (human, UniProt Q9UHF5 21-180)
T1 sequence: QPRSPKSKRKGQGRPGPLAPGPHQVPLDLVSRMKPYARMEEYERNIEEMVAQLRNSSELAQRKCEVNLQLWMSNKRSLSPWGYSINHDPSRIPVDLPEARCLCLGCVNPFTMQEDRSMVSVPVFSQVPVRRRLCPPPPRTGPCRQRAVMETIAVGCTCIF

T2: Human IL17C (human, UniProt Q9P0M4 19-197)
T2 sequence: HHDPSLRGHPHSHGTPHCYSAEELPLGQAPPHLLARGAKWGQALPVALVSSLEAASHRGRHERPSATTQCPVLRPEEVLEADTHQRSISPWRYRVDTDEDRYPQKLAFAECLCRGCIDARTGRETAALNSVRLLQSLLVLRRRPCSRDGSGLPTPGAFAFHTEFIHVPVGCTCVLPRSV

T3: Human IL17D (human, UniProt Q8TAD2 16-202, limits assumed)
T3 sequence: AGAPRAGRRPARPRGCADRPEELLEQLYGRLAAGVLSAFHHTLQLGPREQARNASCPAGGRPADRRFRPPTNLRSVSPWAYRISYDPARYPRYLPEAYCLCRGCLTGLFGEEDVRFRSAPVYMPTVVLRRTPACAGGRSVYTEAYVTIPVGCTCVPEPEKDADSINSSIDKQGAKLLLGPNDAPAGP

T4: Human IL17F (human, UniProt Q96PD4 31-163)
T4 sequence: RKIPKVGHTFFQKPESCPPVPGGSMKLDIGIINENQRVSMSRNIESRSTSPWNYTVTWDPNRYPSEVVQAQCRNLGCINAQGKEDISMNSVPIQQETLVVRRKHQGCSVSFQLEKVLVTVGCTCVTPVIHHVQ

T5: IL-17 F/F (human, UniProt Q96PD4 31-163)
T5 construct: read as the homodimer of IL17F
T5 sequence: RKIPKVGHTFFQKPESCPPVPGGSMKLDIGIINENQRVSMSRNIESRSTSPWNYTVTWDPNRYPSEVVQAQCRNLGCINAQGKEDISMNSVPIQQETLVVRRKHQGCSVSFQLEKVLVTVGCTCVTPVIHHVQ

T6: human Tweak-Fc (human, UniProt O43508 106-249, limits assumed)
T6 construct: not shown: Fc part
T6 sequence: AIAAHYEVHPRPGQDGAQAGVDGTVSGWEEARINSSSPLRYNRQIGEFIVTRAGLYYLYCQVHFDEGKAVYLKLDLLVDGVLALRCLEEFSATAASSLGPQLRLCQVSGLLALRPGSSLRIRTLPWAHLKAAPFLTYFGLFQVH

T7: Recombinant human TWEAK (R&D Systems; Cat. #1090-TW/CF) (human, UniProt O43508 97-249, limits assumed)
T7 sequence: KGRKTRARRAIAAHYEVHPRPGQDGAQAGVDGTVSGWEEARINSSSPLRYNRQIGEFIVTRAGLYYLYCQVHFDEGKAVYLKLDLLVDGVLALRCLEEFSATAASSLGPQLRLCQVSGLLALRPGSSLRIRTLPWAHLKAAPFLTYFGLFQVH


What was measured:
Human IL17B = molecular target: T1, Human IL17B; experiment: ELISA on coated IL-17 subtype; OD relative to IL-17A binding (100)
Description: (§1) NUNC® Maxisorp plates (96-well) are coated with recombinant human IL-17 (Peprotech #200-17, www.peprotech.com) at a concentration of 0.5 μg/ml in PBS ([…]). Plates are incubated at 37° C. on an orbital shaker with agitation for 2 hours. Thereafter coating solution is removed and 100 μl/well PBSTC (phosphate buffered saline, 0.05% Tween®20, 2% chicken serum) is added. Plates are incubated at room temperature for 1 hour. […] The second antibody is diluted 1:10000 in PBSTC and plates are incubated for 1 hour at room temperature with agitation. Second antibody is removed, plates are washed three times with 200 μl/well PBST (phosphate buffered saline, 0.05% Tween®20) and 100 μl/well ABTS® (Roche Diagnostics GmbH) is added. Optical density is measured at 405/492 nm in relation to IL-17A binding (set as 100%). Binding to other human IL-17 subtypes (IL-17B, IL-17C, IL-17D, IL-17E and IL-17F) were performed with the same assay format.

Human IL17C = molecular target: T2, Human IL17C; experiment: as above
Description: as §1

Human IL17D = molecular target: T3, Human IL17D; experiment: as above
Description: as §1

Human IL17F = molecular target: T4, Human IL17F; experiment: as above
Description: as §1

[1] = molecular target: T8, recombinant human IL-17 (Peprotech #200-17) (human, UniProt Q16552 20-155); experiment: cell-based or functional assay
[2] = molecular target: T8, recombinant human IL-17 (Peprotech …); experiment: cell-based or functional assay; remark: listed apart in the source
IL-17 A/F = molecular target: T9, IL-17 A/F (human, UniProt Q16552 24-155; Q96PD4 31-163); experiment: SPR (BIAcore T100), antibody captured by anti-human F(ab')2, IL17 as analyte, 25 C, 1:1 model
T9 construct: read as the heterodimer of IL17A and IL17F
Description: (§2) Around 12000 resonance units (RU) of the capturing system (10 μg/ml goat anti human F(ab′)2; Order Code: 28958325; GE Healthcare Bio-Sciences AB, Schweden) were coupled on a CMS chip at pH 5.0 by using an amine coupling kit supplied by the GE Healthcare. The sample and system buffer was PBS-T (10 mM phosphate buffered saline including 0.05% Tween20) pH 7.4. The bispecific antibody was captured by injecting a 50 nM solution for 1 min at a flow of 10 μl/min. Association was measured by injection human IL17 in various concentrations in solution for 3 min at a flow of 30 μl/min starting with 50 nM in 1:1 dilutions. The dissociation phase was monitored for up to 5 min and triggered by switching from the sample solution to running buffer. The surface was regenerated by two times 60 sec. washing with a glycin pH 2.1 solution at a flow rate of 30 μl/min. Bulk refractive index differences were corrected by subtracting the response obtained from a goat anti human F(ab′)2 surface. Blank injections are also subtracted (=double referencing). For calculation of apparent KD and other kinetic parameters the Langmuir 1:1 model was used.

IL-17 F/F = molecular target: T5, IL-17 F/F; experiment: SPR (BIAcore T100), antibody captured by anti-human F(ab')2, IL17 as analyte, 25 C
Description: as §2

human IL17A/A = human IL17A/A (human, UniProt Q16552 24-155, limits assumed); experiment: SPR (BIAcore T100), antibody captured by anti-human F(ab')2, IL17 as analyte, 25 C, apparent KD, 1:1 model
Description: as §2

human Tweak-Fc [3] = molecular target: T6, human Tweak-Fc; experiment: SPR (BIAcore T100), TWEAK ligand (Tweak-Fc) amine-coupled on C1 chip, bispecific antibody as analyte, 25 C
Description: (§3) The BIAcore® system is well established for the study of molecule interactions. SPR-technology is based on the measurement of the refractive index close to the surface of a gold coated biosensor chip. Changes in the refractive index indicate mass changes on the surface caused by the interaction of immobilized ligand with analyte injected in solution. The mass increases if molecules bind immobilized ligands on the surface, and vice versa, the mass decreases in case of dissociation of the analyte from the immobilized ligand (reflecting complex dissociation). SPR allows a continuous real-time monitoring of ligand/analyte binding and thus the determination of the association rate constant (ka), the dissociation rate constant (kd), and of the equilibrium constant (KD).
(§4) Around 100 resonance units (RU) of TWEAK was immobilized on the C1 chip surface at pH 5.0 using an amine coupling kit supplied by the GE Healthcare. The sample and system buffer was PBS-T (10 mM phosphate buffered saline including 0.05% Tween20) pH 7.4. Association was measured by injection the bispecific antibody in various concentrations in solution for 3 min at a flow of 30 μl/min starting with 50 nM in 1:1 dilutions. The dissociation phase was monitored for up to 10 min and triggered by switching from the sample solution to running buffer. […]

human Tweak-Fc [4] = molecular target: T6, human Tweak-Fc; experiment: SPR (BIAcore T100), TWEAK ligand (Tweak-Fc) amine-coupled on C1 chip, bispecific antibody as analyte, 25 C, apparent KD, 1:1 model
Description: as §3, §4

[5] = molecular target: T7, Recombinant human TWEAK (R&D Systems; …); experiment: cell-based or functional assay
human Tweak-Fc [6] = molecular target: T6, human Tweak-Fc; experiment: SPR (BIAcore T100), TWEAK ligand (Tweak-Fc) amine-coupled on C1 chip, bispecific antibody as analyte, 25 C, 1:1 model
Description: as §3
Around 100 resonance units (RU) of TWEAK was immobilized on the C1 chip surface at pH 5.0 using an amine coupling kit supplied by the GE Healthcare. The sample and system buffer was PBS-T (10 mM phosphate buffered saline including 0.05% Tween20) pH 7.4. Association was measured by injection the bispecific antibody in various concentrations in solution for 3 min at a flow of 30 μl/min starting with 50 nM in 1:1 dilutions. The dissociation phase was monitored for up to 10 min and triggered by switching from the sample solution to running buffer. The surface was regenerated by three times 30 sec. washing with a 3M MgCl2 solution at a flow rate of 30 μl/min. Bulk refractive index differences were corrected by subtracting the response obtained from a blank-coupled surface. Blank injections are also subtracted (=double referencing). For calculation of apparent KD and other kinetic parameters the Langmuir 1:1 model was used.

T8 sequence (Q16552 20-155 limits assumed): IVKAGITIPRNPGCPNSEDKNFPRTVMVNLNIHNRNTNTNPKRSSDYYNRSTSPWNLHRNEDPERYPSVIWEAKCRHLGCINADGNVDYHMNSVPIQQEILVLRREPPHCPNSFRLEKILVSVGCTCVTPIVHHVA
Sequence of human IL17A/A (Q16552 24-155 limits assumed): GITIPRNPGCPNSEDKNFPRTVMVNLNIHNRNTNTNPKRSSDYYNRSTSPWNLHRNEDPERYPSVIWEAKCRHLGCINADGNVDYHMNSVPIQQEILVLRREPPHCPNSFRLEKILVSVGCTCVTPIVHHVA
T9 sequence (Q16552 24-155 limits assumed, one chain of several): as the sequence (Q16552 24-155 limits assumed) above

Row | Binder | binding result (Human IL17B) | binding result (Human IL17C) | binding result (Human IL17D) | binding result (Human IL17F) | IL-8 Inhibition IC50 (nM) (CCD-25SK cells, IL-17A + TNF-alpha) [1] | IL-6 IC50 [nM] per valency (IL-17 induced cytokine production, HFLS-RA) [2] | IL-8 IC50 [nM] per valency (IL-17 induced cytokine production, HFLS-RA) [2] | Kd (IL-17 A/F) | binding result (IL-17 F/F) | Kd (human IL17A/A) | T½ (human Tweak-Fc [3]) | Kd (human Tweak-Fc [4]) | IC50 (nM) per valency, Tweak induced HFLS proliferation (CellTiter Glo) [5] | koff (human Tweak-Fc [6]) | kon (human Tweak-Fc [6])
1 | <IL17> 9C6-2B6-134 (antibody, V domains shown, Humanized variant) VH: EVQLVESGGGLVQPGGSLRLSCAASGFSLDSYGVHWVRQAPGKGLEWVSVIWSDGTTTYNSALKSRFTISRDNSKNTLYLQMNSLRAEDTAVYYCARDTHYRLYYYAMDYWGQGTTVTVSS VL: DIVMTQSPLSLPVTPGEPASISCRSSQSLVHSNGDTYFHWYLQKPGQSPQLLIYKVSNRFSGVPDRFSGSGSGTDFTLKISRVEAEDVGVYYCSQTTHAPFTFGQGTKLEIK | no binding (tested: 10 µg/ml antibody) | no binding (tested: 10 µg/ml antibody) | no binding (tested: 10 µg/ml antibody) | no binding (tested: 10 µg/ml antibody) | 4.5 nM | 3.56 nM | 2.2 nM | – | – | – | – | – | – | – | –
2 | <IL17> 9C6-2B6-136 (antibody, V domains shown, Humanized variant with HC136 and LC136) VH: EVQLVESGGGLVQPGGSLRLSCAASGFSLDSYGVHWVRQATGKGLEWVSVIWSDGTTTYNSALKSRFTISRENAKNSLYLQMNSLRAGDTAVYYCARDTHYRLYYYAMDYWGQGTTVTVSS VL: DIVMTQSPLSLPVTPGEPASISCRSSQSLVHSNGDTYFHWYLQKPGQSPQLLIYKVSNRFSGVPDRFSGSGSGTDFTLKISRVEAEDVGVYYCSQTTHAPFTFGQGTKLEIK | no binding (tested: 10 µg/ml antibody) | no binding (tested: 10 µg/ml antibody) | no binding (tested: 10 µg/ml antibody) | no binding (tested: 10 µg/ml antibody) | 1.8 nM | 1.62 nM | 1.74 nM | 0.26 nM | no binding (tested: IL17 injected starting with 50 nM) | 0.18 nM | – | – | – | – | –
3 | Bispecific <Tweak-IL-17> #20 antibody (bispecific antibody, human IgG4 S228P, kappa, Bivalent one-armed scFab format, IgG4 S228P/L235E knobs-into-holes) heavy 1: EVQLVESGGGLVQPGGSLRLSCAASGFSLDSYGVHWVRQATGKGLEWVSVIWSDGTTTYNSALKSRFTISRENAKNSLYLQMNSLRAGDTAVYYCARDTHYRLYYYAMDYWGQGTTVTVSSASTKGPSVFPLAPCSRSTSESTAALGCLVKDYFPEPVTVSWNSGALTSGVHTFPAVLQSSGLYSLSSVVTVPSSSLGTKTYTCNVDHKPSNTKVDKRVESKYGPPCPPCPAPEFEGGPSVFLFPPKPKDTLMISRTPEVTCVVVDVSQEDPEVQFNWYVDGVEVHNAKTKPREEQFNSTYRVVSVLTVLHQDWLNGKEYKCKVSNKGLPSSIEKTISKAKGQPREPQVCTLPPSQEEMTKNQVSLSCAVKGFYPSDIAVEWESNGQPENNYKTTPPVLDSDGSFFLVSRLTVDKSRWQEGNVFSCSVMHEALHNHYTQKSLSLSLGK heavy 2: not shown light: DIVMTQSPLSLPVTPGEPASISCRSSQSLVHSNGDTYFHWYLQKPGQSPQLLIYKVSNRFSGVPDRFSGSGSGTDFTLKISRVEAEDVGVYYCSQTTHAPFTFGQGTKLEIKRTVAAPSVFIFPPSDEQLKSGTASVVCLLNNFYPREAKVQWKVDNALQSGNSQESVTEQDSKDSTYSLSSTLTLSKADYEKHKVYACEVTHQGLSSPVTKSFNRGEC | – | – | – | – | – | 1.38 nM | 0.9 nM | – | no binding (tested: IL17 injected starting with 50 nM) | < 0.2 nM | 3.63 h | 0.0656 nM | 0.08 nM | 5.31e-05 s⁻¹ | 810000 M⁻¹ s⁻¹
4 | <IL17> 9C6-2B6 (antibody, V domains shown, Mouse hybridoma antibody; also called mouse clone <IL17>9C6-2B6) VH: QVQLKESGPGLVAPSQSLSITCTVSGFSLDSYGVHWVRQPPGKGLEWLVVIWSDGTTTYNSALKSRLSITKDNSKSQVFLKMNSLQTDDTAIYYCARDTHYRLYYYAMDYWGQGTSVTVSS VL: DVVMTQTPLSLPVSLGDQASISCRSSQSLVHSNGDTYFHWYLQKPGQSPKLLIYKVSNRFSGVPDRFSGSGSGTDFTLKINRVEAEDLGVYFCSQTTHAPFTFGSGTKLEIK | no binding (tested: 10 µg/ml antibody) | no binding (tested: 10 µg/ml antibody) | no binding (tested: 10 µg/ml antibody) | no binding (tested: 10 µg/ml antibody) | – | – | – | – | – | – | – | – | – | – | –
